Experimental findings from the supplement of paper PMC10567573 are described below.

± gives the standard deviation.

The data set in a line: protein stability index of a GFP-peptide fusion (GPS, HEK-293T) (PSI 1-6); higher = more stable.
Setting [1] is: treatment: DMSO, c terminus: native.
The mark [2] stands for this setting: treatment: MLN4924 1 uM, 8 h, c terminus: native.
[3] abbreviates: treatment: DMSO, c terminus: a fixed tail appended.
Setting [4] is: treatment: MLN4924 1 uM, 8 h, c terminus: a fixed tail appended.
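Further: 24-mer peptide tiles fused after GFP, lentivirally expressed, FACS-sorted into six equal bins by GFP/DsRed ratio, decoded by Illumina sequencing, PSI is the read-weighted mean bin number.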

On to KHWREWGSHAQTSQIQSIRRIQQ [CRYBA1], for which the protein stability index came out at 3.25 ± 0.69 under setting [1] and 3.19 ± 0.46 under setting [2]. For AKLVDLPCVIESLRTLDKKTFYKT [TAF7L], the protein stability index under setting [3] came out at 2.52 ± 0.47 and the protein stability index under setting [4] came out at 2.18 ± 0.42. The like results for ADKYALERLKVMCEEALCSNLSVE [SPOPL] were, in that order, 3.56 ± 0.18 and 3.62 ± 0.18.

Regarding SEDRTIRVWLKRDSGQYWPSIYHT [WDFY1], the protein stability index is 2.15 ± 0.19 under setting [3] and 2.25 ± 0.31 under setting [4].

Turning to PNAGEQPGQVAGADFESEDEGEEF [EID1], the protein stability index under setting [3] amounted to 5.59 ± 0.28 and the protein stability index under setting [4] came to 5.46 ± 0.33. GSMEALNLKQLRKRGSIPTSLTAL [PPFIA4]: the protein stability index reads like this: under setting [3], 3.11 ± 0.2; under setting [4], 3.11 ± 0.22.

AGAPPPSGSAVSTAPQQKPIGKIS [SRPK2]: the protein stability index is, setting by setting: under setting [3], 5.01 ± 0.26; under setting [4], 5.04 ± 0.24. With PNADLLFSDPSQSDPETKDFWLNM [FCHO1], the protein stability index was determined as 4.2 ± 0.21 under setting [3] and 4.19 ± 0.19 under setting [4].

With SSDSANTTIEDEDAKARKQEIIKT [CAMK2B], the protein stability index is 5.44 ± 0.21 under setting [3] and 5.42 ± 0.082 under setting [4]. As for GFGLAHTPLEPDAKDLPCDSKPES [TBX5], the protein stability index reads like this: under setting [3], 5.38 ± 0.51; under setting [4], 5.47 ± 0.43. The sequence VRGLYDFYLPREELWIYNMETGRW [KLHDC2] yielded a protein stability index under setting [3] of 2.57 ± 0.39 and a protein stability index under setting [4] of 2.24 ± 0.48. For the sequence GNVKIDSQKLNFREHAKARVDHGA [MAP2], the protein stability index reads like this: under setting [3], 4.22 ± 0.14; under setting [4], 4.23 ± 0.52. On the same counts, the results for HGAHINLQSLKFQGGHGPAATLLR [RIPK4] are 2.65 ± 0.36 and 3 ± 0.047. In the case of SGSGNGSSTLNPSTSSSTQGDPAF [NOL4L], the protein stability index runs as follows: under setting [3], 5.04 ± 0.34; under setting [4], 5.07 ± 0.17. LKERFAFLFNSELLSDVRFVLGKG [BTBD1]: the protein stability index runs as follows: under setting [3], 2.53 ± 0.23; under setting [4], 2.64 ± 0.41. On the same counts, the results for RGKIHAFRGQILGFWEEERPFWEE [CCDC70] are 2.42 ± 0.14 and 2.47 ± 0.24. The like results for VERSKMIDRNLREDGEKAAREVKL [GNAI1] were, in that order, 4.93 ± 0.38 and 5.09 ± 0.062.

In the case of EVLVKSNNLTDRIVVIPGKVEEVS [CARM1], the protein stability index runs as follows: under setting [3], 3.66 ± 0.19; under setting [4], 3.8 ± 0.43. For the sequence CLPLTFCIHTGLSQYIAVEAAEGR [FBXO3], the protein stability index by setting is: under setting [3], 2.96 ± 0.72; under setting [4], 2.4 ± 0.93. On the same counts, the results for LERNPNGVADGVIKSVLWQTLQAL [CDKL4] are 2.28 ± 0.94 and 2.56 ± 1.1.

For LWVPQPPPRTIKRTRRRLSRNRDP [PWWP2B], the protein stability index came out at 3.44 ± 0.35 under setting [3] and 3.82 ± 0.33 under setting [4]. On the same counts, the results for MPRAPKRQRCMPEEDLQSQSETQG [MAGEA10] are 5.02 ± 0.42 and 5.05 ± 0.12. SRPVKGQVVTVHLQTSLENGTRVQ [FKBP8]: the protein stability index reads like this: under setting [3], 3.38 ± 0.45; under setting [4], 3.51 ± 0.26. The like results for IWVPIKIGALTYFAQADALKGTLV [ACSBG2] were, in that order, 2.76 ± 0.71 and 3.08 ± 0.67.

In turn, AEPGFEPADCKRKEEAGAPGGGAG [CEBPB] gave a protein stability index under setting [3] of 5.48 ± 0.47 and a protein stability index under setting [4] of 5.56 ± 0.15. The like results for DLQVNRNFSLATNTKYSVYIYVYF [R3HDM1] were, in that order, 2.59 ± 0.59 and 2.88 ± 0.078. Turning to VLAARSPVFNAMFEHEMEESKKNR [SPOPL], the protein stability index reads like this: under setting [3], 3.73 ± 0.2; under setting [4], 4.27 ± 0.29.

APATTSSWEVVRNPLIASSFSLVK [C22orf31] showed a protein stability index under setting [3] of 2.91 ± 0.24 and a protein stability index under setting [4] of 2.96 ± 0.1. For AVVHEYALAVCLSFFYPVLFVLFM [SOAT1], the protein stability index is, setting by setting: under setting [3], 3.29 ± 0.42; under setting [4], 3.02 ± 0.21. For ISRLEQCGINANDVKKLEEAGFHT [RAD51], the protein stability index worked out at 3.58 ± 0.15 under setting [3] and 3.9 ± 0.11 under setting [4]. The like results for GSSGSYFVKDPQGRIIAVFKPKNE [PI4K2A] were, in that order, 3.34 ± 0.16 and 3.66 ± 0.12. On the same counts, the results for EHSHRSHHSLASSLRSHHTHPSYG [DVL3] are 3.48 ± 0.25 and 3.56 ± 0.19. The like results for DKLEYLDEKQRDPRIEASKVLLCH [NET1] were, in that order, 4.09 ± 0.22 and 4.08 ± 0.19. As for ALVGDEVELPCRISPGKNATGMEV [MOG], the protein stability index was 4.03 ± 0.22 under setting [3] and 4.23 ± 0.26 under setting [4]. The like results for TTFSTTSGYMEGYYTFHFLYFKDK [FBXO3] were, in that order, 2.97 ± 0.74 and 2.41 ± 0.41. As for LEVNKPKNRYANVIAYDHSRVLLS [PTPRD], the protein stability index under setting [3] was 2.54 ± 0.31 and the protein stability index under setting [4] came out at 2.71 ± 0.21. Turning to SIEGTIPFSKPVKVYIMPKPARR [INTS4], the protein stability index was 2.42 ± 0.33 under setting [1] and 2.56 ± 0.45 under setting [2]. Sequence EWENNRESLIVFMEQVHRGIKGLV [CPXM2] yielded a protein stability index under setting [3] of 2.27 ± 0.56 and a protein stability index under setting [4] of 2.07 ± 0.37. In the case of FKHPSIRNPVSLVVTRLVILGSGE [ADAMTS4], the protein stability index under setting [4] stood at 3.03 ± 0.97. With DKMEAYNIDETCGRHHSQSTEVQA [TEKT4], the protein stability index runs as follows: under setting [3], 4.91 ± 0.19; under setting [4], 4.9 ± 0.17.

For the sequence GRPKELQPKKLHLCPLCGKNFSNN [ZNF263], the protein stability index was found to be 2.88 ± 0.46 under setting [3] and 3.58 ± 0.52 under setting [4].

In the case of LFLPCLLCYPPAKGCLKLCRRCYD [SPRY1], the protein stability index is, setting by setting: under setting [3], 2.36 ± 0.19; under setting [4], 2.45 ± 0.62. As for LYQRAPRNIHRHVILSEIKEAVAA [TCF25], the protein stability index reads like this: under setting [3], 2.75 ± 0.34; under setting [4], 2.7 ± 0.25. The like results for QWSSDVAPTSTCRTSVGVAVLGGF [KLHL20] were, in that order, 2.69 ± 0.58 and 2.71 ± 0.86. The like results for CPIDQHHRNQCQYCRLKKCLKVGM [NR2F2] were, in that order, 2.97 ± 0.038 and 3.36 ± 0.36. On the same counts, the results for IASSDSEVEIVGVQEHARCVHPRG [C18orf25] are 4.49 ± 0.37 and 4.6 ± 0.1. Regarding TPKDKRVSNTPLRTVDGSPMMKAA [PALM], the protein stability index runs as follows: under setting [3], 4.33 ± 0.3; under setting [4], 4.39 ± 0.24. EAEADKPRRLGRLKYQAPDIDVQL [NOP53]: the protein stability index by setting is: under setting [3], 4.63 ± 0.22; under setting [4], 4.4 ± 0.2. The like results for EEFILLSQGEVEKLIKCDEIQVDS [KLHL12] were, in that order, 4.49 ± 0.58 and 4.45 ± 0.48. The like results for WWNHMHFQHHAKPNCFRKDPDINM [FADS1] were, in that order, 2.17 ± 0.42 and 2.26 ± 0.49. The like results for NAANRTGYVPSNYVERKNSLKKGS [NCK2] were, in that order, 4.33 ± 0.3 and 4.45 ± 0.18. SGGSSSSFRAGSKGLSGGFGSRSL [KRT71]: the protein stability index by setting is: under setting [3], 3.32 ± 0.18; under setting [4], 3.14 ± 0.13. Consider QGKDWGFKKFIRRDFLLDEANGLL [SPOPL], for which the protein stability index is 2.72 ± 0.27 under setting [3] and 2.31 ± 0.23 under setting [4].
